Data as given in publication PMC8294330, “A cooperative PNPase-Hfq-RNA carrier complex facilitates bacterial riboregulation” (Molecular Cell, 2021).

Molecular target: the molecule itself
Experiment: cryo-EM structure; apo PNPase and PNPase with 3'ETSleuZ RNA; 8-12 uM in 20 mM Tris-HCl pH 8, 2.5 mM MgCl2, 150 mM KCl, 1 mM TCEP, 8 mM CHAPSO added before blotting

B1: Escherichia coli polynucleotide phosphorylase (PNPase), wild type (enzyme, UniProt P05055 1-711, looked up)
chain: MLNPIVRKFQYGQHTVTLETGMMARQATAAVMVSMDDTAVFVTVVGQKKAKPGQDFFPLTVNYQERTYAAGRIPGSFFRREGRPSEGETLIARLIDRPIRPLFPEGFVNEVQVIATVVSVNPQVNPDIVAMIGASAALSLSGIPFNGPIGAARVGYINDQYVLNPTQDELKESKLDLVVAGTEAAVLMVESEAQLLSEDQMLGAVVFGHEQQQVVIQNINELVKEAGKPRWDWQPEPVNEALNARVAALAEARLSDAYRITDKQERYAQVDVIKSETIATLLAEDETLDENELGEILHAIEKNVVRSRVLAGEPRIDGREKDMIRGLDVRTGVLPRTHGSALFTRGETQALVTATLGTARDAQVLDELMGERTDTFLFHYNFPPYSVGETGMVGSPKRREIGHGRLAKRGVLAVMPDMDKFPYTVRVVSEITESNGSSSMASVCGASLALMDAGVPIKAAVAGIAMGLVKEGDNYVVLSDILGDEDHLGDMDFKVAGSRDGISALQMDIKIEGITKEIMQVALNQAKGARLHILGVMEQAINAPRGDISEFAPRIHTIKINPDKIKDVIGKGGSVIRALTEETGTTIEIEDDGTVKIAATDGEKAKHAIRRIEEITAEIEVGRVYTGKVTRIVDFGAFVAIGGGKEGLVHISQIADKRVEKVTDYLQMGQEVPVKVLEVDRQGRIRLSIKEATEQSQPAAAPEAPAAEQGE
notes: polynucleotide phosphorylase (PNPase), Escherichia coli, full-length enzyme with RNase PH core, KH and S1 domains; Preparation follows Bandyra et al., 2016; no tag is named for the purified protein; also called wild-type PNPase; PNPase WT
stoichiometry N: 3
